From PMC10083542 come the findings set out here.

Assay in all cases: EMSA
A general note: A gel shift assay detects complexes by their altered migration in electrophoresis.

Data set [1] concerns T1, Dcp2 1-300 (Saccharomyces cerevisiae).
T1 sequence: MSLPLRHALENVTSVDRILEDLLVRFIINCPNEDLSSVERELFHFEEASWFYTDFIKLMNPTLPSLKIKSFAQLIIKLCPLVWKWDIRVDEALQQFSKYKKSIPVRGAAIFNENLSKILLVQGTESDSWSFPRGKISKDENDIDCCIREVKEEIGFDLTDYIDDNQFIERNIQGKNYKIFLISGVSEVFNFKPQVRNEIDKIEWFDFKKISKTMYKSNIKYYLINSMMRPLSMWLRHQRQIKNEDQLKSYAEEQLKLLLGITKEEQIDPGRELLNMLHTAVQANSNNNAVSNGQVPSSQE
Particulars: EMSA: 10 nM Alexa Fluor 647 RPL41A RNA, 300 mM KOAc, 10 mM MES pH 7 or 5.8, 5 mM BME; temperature not given in material.

In data set [2] the test system is T2, Dcp1 (Saccharomyces cerevisiae).
T2 sequence: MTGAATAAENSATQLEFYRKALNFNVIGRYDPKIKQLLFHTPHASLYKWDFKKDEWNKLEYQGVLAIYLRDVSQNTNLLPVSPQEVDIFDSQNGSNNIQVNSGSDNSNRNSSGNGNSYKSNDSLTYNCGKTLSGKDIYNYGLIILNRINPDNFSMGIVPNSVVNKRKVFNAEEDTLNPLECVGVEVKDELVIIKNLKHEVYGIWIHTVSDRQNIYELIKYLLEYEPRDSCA
The conditions noted are these: EMSA: 10 nM Alexa Fluor 647 RPL41A RNA, 300 mM KOAc, 10 mM MES pH 7 or 5.8, 5 mM BME; temperature not given in material.

The subject of data set [3] is Dcp2 H237A (Saccharomyces cerevisiae). Particulars: pH 5.8; EMSA: 10 nM Alexa Fluor 647 RPL41A RNA, 300 mM KOAc, 10 mM MES pH 7 or 5.8, 5 mM BME; temperature not given in material.
The test system of data set [4] is T3, Dcp2 (Saccharomyces cerevisiae).
T3 sequence: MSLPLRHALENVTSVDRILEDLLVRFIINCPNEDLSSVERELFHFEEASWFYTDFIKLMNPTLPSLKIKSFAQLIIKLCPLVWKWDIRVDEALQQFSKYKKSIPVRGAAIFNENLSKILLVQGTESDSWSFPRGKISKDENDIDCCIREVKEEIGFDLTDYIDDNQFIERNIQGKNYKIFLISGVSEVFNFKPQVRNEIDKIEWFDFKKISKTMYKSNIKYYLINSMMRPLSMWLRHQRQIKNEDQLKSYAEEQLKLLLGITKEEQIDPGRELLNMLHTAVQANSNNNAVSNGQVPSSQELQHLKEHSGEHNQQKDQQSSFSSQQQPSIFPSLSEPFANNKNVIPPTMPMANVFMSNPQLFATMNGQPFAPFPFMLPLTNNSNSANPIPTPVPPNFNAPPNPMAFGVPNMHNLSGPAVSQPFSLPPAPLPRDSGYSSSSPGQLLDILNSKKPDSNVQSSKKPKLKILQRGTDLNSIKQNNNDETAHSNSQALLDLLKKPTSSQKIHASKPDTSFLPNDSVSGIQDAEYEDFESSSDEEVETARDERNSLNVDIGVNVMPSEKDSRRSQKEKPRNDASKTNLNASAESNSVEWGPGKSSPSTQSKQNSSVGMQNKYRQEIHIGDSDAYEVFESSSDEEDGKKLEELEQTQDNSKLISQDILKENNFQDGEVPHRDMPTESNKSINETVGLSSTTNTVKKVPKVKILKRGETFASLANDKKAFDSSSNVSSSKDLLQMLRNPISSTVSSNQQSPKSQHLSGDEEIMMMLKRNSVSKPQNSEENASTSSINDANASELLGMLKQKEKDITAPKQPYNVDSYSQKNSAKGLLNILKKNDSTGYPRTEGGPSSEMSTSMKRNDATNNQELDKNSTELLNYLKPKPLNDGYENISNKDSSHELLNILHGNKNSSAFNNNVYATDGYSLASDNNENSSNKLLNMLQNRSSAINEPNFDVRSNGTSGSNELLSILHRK
The conditions noted are these: EMSA: 10 nM Alexa Fluor 647 RPL41A RNA, 300 mM KOAc, 10 mM MES pH 7 or 5.8, 5 mM BME, temperature not given in material.

In the case of RPL41A RNA (60 nt), the Kd in data set [1] and in data set [2] was more than 20 µM in each case. Further, the binding signal (fold lower affinity than wild type) in data set [3] was 2. Also, the binding signal (fold tighter at pH 5.8 than at pH 7) in data set [4] was more than 16.
